{"source": "paper PMC2847487", "molecules": {"B1": {"name": "p75NTR: Asn32 to Asp (protein)", "parent chain": "MRRAGAACSAMDRLRLLLLLILGVSSGGAKETCSTGLYTHSGECCKACNLGEGVAQPCGANQTVCEPCLDNVTFSDVVSATEPCKPCTECLGLQSMSAPCVEADDAVCRCAYGYYQDEETGHCEACSVCEVGSGLVFSCQDKQNTVCEECPEGTYSDEANHVDPCLPCTVCEDTERQLRECTPWADAECEEIPGRWIPRSTPPEGSDSTAPSTQEPEVPPEQDLVPSTVADMVTTVMGSSQPVVTRGTTDNLIPVYCSILAAVVVGLVAYIAFKRWNSCKQNKQGANSRPVNQTPPPEGEKLHSDSGISVDSQSLHDQQTHTQTASGQALKGDGNLYSSLPLTKREEVEKLLNGDTWRHLAGELGYQPEHIDSFTHEACPVRALLASWGAQDSATLDALLAALRRIQRADIVESLCSESTATSPV"}}, "key": {"[1]": {"biological_target": "sortilin extracellular region with C-terminal biotinylation acceptor peptide, biotinylated (human) (human) (UniProt Q99523)", "experiment": "SPR"}, "[2]": {"biological_target": "triple-site mutant proNGF (mouse, cleavage-resistant) (mouse)", "experiment": "crystal structure"}, "[3]": {"biological_target": "C-terminal myc-tagged sortilin (UniProt Q99523)", "experiment": "co-IP"}, "[4]": {"experiment": "size exclusion chromatography of p75NTR alone", "settings": "glycan lost; control: wild-type glycosylated p75NTR"}}, "data": [{"molecule": "proNGF/p75NTR complex (preformed) (from UniProt P07174 29-190)", "values": [{"measurement": "Kd", "setting": "[1]", "value": 140, "unit": "nM"}]}, {"molecule": "p75NTR extracellular portion, Asn32 to Asp glycosylation site mutant (rat) (from UniProt P07174 29-190) (receptor)", "values": [{"measurement": "stoichiometry N (p75NTR per proNGF chain (2:2))", "setting": "[2]", "value": 1}]}, {"molecule": "N-terminal HA tagged-proNGF (from UniProt P01139 122-241) (ligand)", "values": [{"measurement": "fold increase of the proNGF:sortilin interaction with calcium over EDTA", "setting": "[3]", "value": 2.3, "unit": "fold"}]}, {"molecule": "B1", "values": [{"measurement": "oligomerisation", "setting": "[4]", "value": "no change"}]}]}
